From patent US20230159601A1 (SEOUL NATIONAL UNIVERSITY HOSPITAL, published 2023)

Target: T1, recombinant human proprotein convertase subtilisin/kexin type-9 (rhPCSK9) (human, UniProt Q8NBP7 31-692, limits assumed)
T1 construct: Elsewhere it is called His-rhPCSK9; also called recombinant hPCSK9; recombinant human PCSK9
Test: surface plasmon resonance, direct binding analysis between rhPCSK9 and CAP1 (FIG. 1E)

T1 sequence (Q8NBP7 31-692 limits assumed): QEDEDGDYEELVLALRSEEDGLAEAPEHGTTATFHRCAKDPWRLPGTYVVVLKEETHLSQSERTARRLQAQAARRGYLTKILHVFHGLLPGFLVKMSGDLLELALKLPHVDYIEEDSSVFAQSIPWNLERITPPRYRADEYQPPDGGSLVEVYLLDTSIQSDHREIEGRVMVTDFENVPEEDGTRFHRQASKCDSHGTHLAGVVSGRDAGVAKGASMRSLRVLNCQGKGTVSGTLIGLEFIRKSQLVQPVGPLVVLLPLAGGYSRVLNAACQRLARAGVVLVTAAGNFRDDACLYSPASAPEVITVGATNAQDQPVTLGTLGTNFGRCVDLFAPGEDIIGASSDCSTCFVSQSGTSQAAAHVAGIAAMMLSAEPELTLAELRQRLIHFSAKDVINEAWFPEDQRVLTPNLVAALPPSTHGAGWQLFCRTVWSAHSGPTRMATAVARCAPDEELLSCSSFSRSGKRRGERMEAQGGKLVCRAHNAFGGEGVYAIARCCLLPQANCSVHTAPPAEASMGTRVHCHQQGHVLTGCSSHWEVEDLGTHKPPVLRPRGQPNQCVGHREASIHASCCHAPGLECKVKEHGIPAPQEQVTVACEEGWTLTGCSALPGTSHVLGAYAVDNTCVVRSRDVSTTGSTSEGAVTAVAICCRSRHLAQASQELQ

B1: human adenylyl cyclase-associated protein 1 (CAP1), wild type (other)
chain: MADMQNLVERLERAVGRLEAVSHTSDMHRGYADSPSKAGAAPYVQAFDSLLAGPVAEYLKISKEIGGDVQKHAEMVHTGLKLERALLVTASQCQQPAENKLSDLLAPISEQIKEVITFREKNRGSKLFNHLSAVSESIQALGWVAMAPKPGPYVKEMNDAAMFYTNRVLKEYKDVDKKHVDWVKAYLSIWTELQAYIKEFHTTGLAWSKTGPVAKELSGLPSGPSAGSGPPPPPPGPPPPPVSTSSGSDESASRSALFAQINQGESITHALKHVSDDMKTHKNPALKAQSGPVRSGPKPFSAPKPQTSPSPKRATKKEPAVLELEGKKWRVENQENVSNLVIEDTELKQVAYIYKCVNTTLQIKGKINSITVDNCKKLGLVFDDVVGIVEIINSKDVKVQVMGKVPTISINKTDGCHAYLSKNSLDCEIVSAKSSEMNVLIPTEGGDFNEFPVPEQFKTLWNGQKLVTTVTEIAG
notes: also called hCAP1; wtCAP1
Question: With B1 as the binder, how does the Kd read?
Answer: 1010 nM
